Experiments:
[1] = target: LjARPC3 (yeast two-hybrid fusion) (Lotus japonicus); experiment: two-hybrid; S. cerevisiae AH109; quantitative β-galactosidase (lacZ) activity under the control of the GAL4 promoter
[2] = target: NIN C-terminal half (RWP-RK domain) (Lotus japonicus, UniProt Q9S7B1 520-878); experiment: EMSA; 0.5 or 1 ug protein; unlabeled competitor 5x, 10x or 50x; EMSA with LightShift chemiluminescent kit (Thermo); buffer, salt, pH and temperature not stated; details: protein: recombinant; tags: C-terminal His; label: biotin; blunt
Sequence of NIN C-terminal half (RWP-RK domain) (Q9S7B1 entry or part of it): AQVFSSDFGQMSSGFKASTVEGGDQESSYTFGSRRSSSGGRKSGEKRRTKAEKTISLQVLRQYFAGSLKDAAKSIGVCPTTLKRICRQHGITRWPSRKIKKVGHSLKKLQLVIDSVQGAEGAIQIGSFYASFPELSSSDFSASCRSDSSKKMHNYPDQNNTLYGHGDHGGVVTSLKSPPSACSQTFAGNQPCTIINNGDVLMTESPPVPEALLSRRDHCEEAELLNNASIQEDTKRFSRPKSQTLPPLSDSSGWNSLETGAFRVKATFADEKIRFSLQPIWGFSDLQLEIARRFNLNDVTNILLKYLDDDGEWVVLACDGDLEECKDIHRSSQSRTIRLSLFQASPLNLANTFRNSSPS

| β-galactosidase (LacZ) activity [1] [units] | Molecule | binding result [2] |
| --- | --- | --- |
| 18.1 | SCARN C-terminal WA domain (yeast two-hybrid fusion) (domain or fragment) |  |
|  | SCARN promoter S1 (dsDNA) DNA 1: GTAGTAGAGAGATAGAGTGAGTGAAAGGGTTTGAGGAATG DNA 2: CATTCCTCAAACCCTTTCACTCACTCTATCTCTCTACTAC | binds |
|  | SCARN promoter S3 (dsDNA) DNA 1: AGTCAAGAGGATTGCAGAAGAAAGTAGGGTTTGTGAATCG DNA 2: CGATTCACAAACCCTACTTTCTTCTGCAATCCTCTTGACT | binds |
|  | SCARN promoter S2 (dsDNA) DNA 1: AAGAGGTGAAACTGAAGGAGTCAAGAGGATTGCAGAAGAA DNA 2: TTCTTCTGCAATCCTCTTGACTCCTTCAGTTTCACCTCTT | binds |
